# According to the supplement of paper PMC7125110:
# ± gives the standard error. Variants at the floor of the assay were thinned out.
# B1: glmS ribozyme (parent)
# chain: AUAAAAGCGCCAGAACUACAGAAAUGUAGUUGACGAGGAGGAGGUUUAUCGAAUUUUCGGCGGAUGCCUCCAAA
# Variants of: B1
# Test: self-cleavage kobs at 2500 uM GlcN6P; higher = faster cleavage; RNA array
# Conditions: with glucosamine-6-phosphate
# In short: (§1)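 Weighted Michaelis–Menten fits across concentrations supplied kcat and KM, based on kobs from one- or two-exponential decay fits to normalised per-tile medians. The data came from barcoded ribozyme variants transcribed in situ by E. coli RNA polymerase on sequenced MiSeq chips and tracked at 37 °C by a hybridised Cy3 probe. Glucosamine-6-phosphate (40 μM to 10 mM) in HEPES/KCl/Mg(OAc)2 buffer was flowed in.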
row,Variant,self-cleavage kobs at 2500 uM GlcN6P [s⁻¹]
1,A52G A64G C68U,6.71e-05 ± 2.2e-05
2,A1U A15G A36U,< 1e-05
3,A12G A14G G32U A33U G51C,< 1e-05
4,G7A A39C G59C C70U,< 1e-05
5,U46C G60U C70U,< 1e-05
6,G7U A53G U57A,< 1e-05
7,C10A C16U A64U,< 1e-05
8,G38C G43C U56G C67A U69A,< 1e-05
9,A48C C61U G66A,< 1e-05
10,C11G U55A C61A U69A C71G,0.000284 ± 8.5e-05
11,G41U U57G C70A,0.000107 ± 1.9e-05
12,G7U A12C C16U G60A,< 1e-05
13,A14G G41A G62U,< 1e-05
14,G35C G43U U69G,< 1e-05
15,C8G G32A U54G,< 1e-05
16,C34A G41U A42C,< 1e-05
17,C16U G41A C67U,< 1e-05
18,A6U G37U G40U,< 1e-05
19,A14G A36U A39C,< 1e-05
20,G29A U31A G38C,< 1e-05
21,C8G A39U C71A,< 1e-05

row,Variant,self-cleavage kobs at 2500 uM GlcN6P [s⁻¹]
1,G13U U47G U54A G62A,< 1e-05
2,A15G G38A A48U,< 1e-05
3,G7A G9U,< 1e-05
4,A12C A15U G62A,< 1e-05
5,C10A U47C G62U,< 1e-05
6,G9A A14G G41U,< 1e-05
7,G37C U45A G60U A64C,< 1e-05
8,A12G C61U C67U C68G,5.12e-05 ± 2.3e-05
9,G35A U56A C68G,< 1e-05
10,A33C C61A G62U,< 1e-05
11,G66A C67U C70U,0.000488 ± 0.00017
12,A12C A39G U49C,< 1e-05
13,A12G G37U A53C G62A A64U C68G,< 1e-05
14,U31A G38U G51A,< 1e-05
15,A15U G44C A53U C58G C70U,< 1e-05
16,A14G A15U A48U,0.000128 ± 4.1e-05
17,U31G G38U A42U C67U,< 1e-05
18,C10G A42C U65G,< 1e-05
19,A33G A52G G62A,< 1e-05
20,A6U A15G C16U,5.09e-05 ± 1.6e-05
21,C11G U47A C50G C70G,0.000352 ± 8.9e-05

# Variants of: B1
# Test: self-cleavage kobs at 10000 uM GlcN6P; higher = faster cleavage; RNA array
# Conditions: with glucosamine-6-phosphate
# In short: as §1
row,Variant,self-cleavage kobs at 10000 uM GlcN6P [s⁻¹]
1,C10A U47C G62U,< 1e-05
